Test results from US20230279064A1.

Biological target: human collagen (Sigma cat. no. C5483) (human)
Assay: ELISA on immobilised human collagen (FIG. 9)

human collagen (Sigma cat. no. C5483) (human), sequence (P02452 162-1218, chain 1 of 2): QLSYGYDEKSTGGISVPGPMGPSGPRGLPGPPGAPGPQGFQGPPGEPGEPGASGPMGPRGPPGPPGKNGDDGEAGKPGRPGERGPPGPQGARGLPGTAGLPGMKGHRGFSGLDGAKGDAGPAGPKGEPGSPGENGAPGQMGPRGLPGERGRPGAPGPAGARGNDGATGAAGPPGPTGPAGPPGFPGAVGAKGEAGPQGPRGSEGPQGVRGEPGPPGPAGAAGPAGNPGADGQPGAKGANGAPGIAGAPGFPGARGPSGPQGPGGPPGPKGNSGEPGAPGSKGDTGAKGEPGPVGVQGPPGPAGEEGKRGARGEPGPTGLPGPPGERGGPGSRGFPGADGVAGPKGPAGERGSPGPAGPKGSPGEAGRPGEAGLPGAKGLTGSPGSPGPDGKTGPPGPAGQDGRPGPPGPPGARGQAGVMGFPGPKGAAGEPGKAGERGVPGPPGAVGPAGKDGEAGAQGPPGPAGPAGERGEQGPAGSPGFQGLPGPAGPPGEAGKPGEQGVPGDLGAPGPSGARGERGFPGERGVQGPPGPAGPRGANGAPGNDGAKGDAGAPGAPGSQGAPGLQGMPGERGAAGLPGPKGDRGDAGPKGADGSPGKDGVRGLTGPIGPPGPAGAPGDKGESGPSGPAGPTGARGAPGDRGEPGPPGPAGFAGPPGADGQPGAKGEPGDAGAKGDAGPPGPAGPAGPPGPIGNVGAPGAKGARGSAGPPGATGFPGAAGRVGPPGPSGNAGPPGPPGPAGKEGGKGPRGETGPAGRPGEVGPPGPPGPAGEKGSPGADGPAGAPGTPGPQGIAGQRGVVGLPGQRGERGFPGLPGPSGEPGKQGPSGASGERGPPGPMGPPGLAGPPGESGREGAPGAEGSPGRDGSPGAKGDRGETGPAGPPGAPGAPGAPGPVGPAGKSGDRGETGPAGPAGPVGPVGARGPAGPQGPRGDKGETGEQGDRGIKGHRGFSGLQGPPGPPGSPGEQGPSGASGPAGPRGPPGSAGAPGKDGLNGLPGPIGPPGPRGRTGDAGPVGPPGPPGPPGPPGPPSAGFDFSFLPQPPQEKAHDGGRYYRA
human collagen (Sigma cat. no. C5483) (human), sequence (P08123 80-1119, chain 2 of 2, further chain): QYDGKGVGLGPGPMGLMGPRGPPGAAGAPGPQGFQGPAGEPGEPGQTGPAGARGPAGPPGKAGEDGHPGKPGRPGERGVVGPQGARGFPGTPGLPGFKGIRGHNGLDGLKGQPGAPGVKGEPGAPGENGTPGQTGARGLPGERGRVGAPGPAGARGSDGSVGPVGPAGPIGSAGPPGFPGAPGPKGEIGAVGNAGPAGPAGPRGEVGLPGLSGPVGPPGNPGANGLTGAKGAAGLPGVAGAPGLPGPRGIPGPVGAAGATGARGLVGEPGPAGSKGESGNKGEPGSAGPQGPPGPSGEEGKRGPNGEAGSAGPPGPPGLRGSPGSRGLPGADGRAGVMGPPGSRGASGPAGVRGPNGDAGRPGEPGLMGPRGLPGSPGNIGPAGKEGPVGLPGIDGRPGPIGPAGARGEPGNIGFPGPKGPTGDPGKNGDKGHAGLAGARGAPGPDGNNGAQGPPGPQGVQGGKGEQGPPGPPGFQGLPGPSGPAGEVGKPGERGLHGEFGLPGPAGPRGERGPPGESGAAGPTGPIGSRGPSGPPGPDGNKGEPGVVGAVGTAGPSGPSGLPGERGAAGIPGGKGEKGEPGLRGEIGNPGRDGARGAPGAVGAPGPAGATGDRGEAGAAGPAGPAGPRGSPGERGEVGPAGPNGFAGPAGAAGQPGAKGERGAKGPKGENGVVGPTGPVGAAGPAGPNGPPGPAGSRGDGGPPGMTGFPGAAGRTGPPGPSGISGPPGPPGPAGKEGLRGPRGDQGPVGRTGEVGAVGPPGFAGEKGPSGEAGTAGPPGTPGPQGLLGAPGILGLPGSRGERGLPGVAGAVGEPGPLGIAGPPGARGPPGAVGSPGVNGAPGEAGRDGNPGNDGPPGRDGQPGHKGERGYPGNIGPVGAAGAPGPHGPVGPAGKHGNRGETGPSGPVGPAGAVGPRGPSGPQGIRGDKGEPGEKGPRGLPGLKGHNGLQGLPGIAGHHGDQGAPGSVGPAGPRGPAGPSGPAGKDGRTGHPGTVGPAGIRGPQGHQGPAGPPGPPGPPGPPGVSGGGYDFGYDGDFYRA

Question: With “GAIM scaffold variant with the Q128H mutation (Fc fusion)” as the substance, how does the fold increase in non-specific binding to collagen read?
Answer: 1.4 fold
